Assay results: patent US20230250188A1 (NATIONAL UNIVERSITY CORPORATION KOCHI UNIVERSITY, published 2023)
Residue numbers refer to the chain shown, from its start.

T1: human GPC1 on the surface of GPC1-positive cancer cells (TE8, TE14, BxPC-3) (human, UniProt P35052 24-530)
T1 sequence: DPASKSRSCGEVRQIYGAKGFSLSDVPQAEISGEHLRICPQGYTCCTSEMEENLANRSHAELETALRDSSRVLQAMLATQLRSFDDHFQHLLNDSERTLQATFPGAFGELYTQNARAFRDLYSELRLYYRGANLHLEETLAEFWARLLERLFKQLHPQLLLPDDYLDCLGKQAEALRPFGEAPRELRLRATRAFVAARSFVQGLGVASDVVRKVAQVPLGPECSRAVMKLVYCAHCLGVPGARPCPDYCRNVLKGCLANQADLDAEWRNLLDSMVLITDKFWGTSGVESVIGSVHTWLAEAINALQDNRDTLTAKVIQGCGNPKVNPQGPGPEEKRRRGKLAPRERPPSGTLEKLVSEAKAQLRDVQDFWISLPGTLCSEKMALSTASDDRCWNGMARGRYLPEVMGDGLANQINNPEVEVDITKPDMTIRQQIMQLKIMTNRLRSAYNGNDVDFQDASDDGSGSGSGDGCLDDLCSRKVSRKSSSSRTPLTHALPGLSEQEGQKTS

T2: recombinant human GPC1 protein (R&D Systems) (human, UniProt P35052 24-530)
T2 construct: Bought recombinant protein (R&D Systems); also called human GPC-1 antigen; Glypican-1
T2 sequence: T1 sequence

B1: humanized anti-GPC1 monoclonal antibody clone T1 (antibody, human IgG4 S228P, kappa, V domains shown)
VH: QVQLVQSGAEVKKPGASVKVSCKASGYTFTGYYMHWVRQAPGQGLEWMGEINPSTGDTTYNQKFKARVTMTRDTSTSTVYMELSSLRSEDTAVYYCAREKRDDGVFAYWGQGTLVTVSS
VL: DIVMTQSPSFLSASVGDRVTITCRASQGISSYLVWYQQKPGKAPKLLIYSASVLQSGVPSRFSGRGYGTDFTLTISSLQPEDFATYYCQQSFSIPPVTFGGGTKVEIKR
notes: IgG
B2: humanized anti-GPC1 monoclonal antibody clone T11 (antibody, human IgG4 S228P, kappa, V domains shown)
VH: B1 VH
VL: AIRMTQSPSSLSASVGDRVTITCRASRSISTYLHWYQQKAGKAPKLLIYSAYNLQSGVPSRFSGSGSGTDFTLTISSLQPEDFATYYCQQSYSTPYTFGQGTKVEIKR
notes: IgG
B3: humanized anti-GPC1 monoclonal antibody clone T29 (antibody, human IgG4 S228P, kappa, V domains shown)
VH: B1 VH
VL: DIVMTQSPSSLSASVGDRVTITCRASQDISSYLNWYQQKPGEAPKLLVYGASNLQRGVPPGFRGSGSGTDFTLTINNLQPEDFATYYCQQSSTSPITFGQGTRLEIKR
notes: IgG
B4: humanized anti-GPC1 monoclonal antibody clone T22 (antibody, human IgG4 S228P, kappa, V domains shown)
VH: B1 VH
VL: AIQMTQSPASLSASLGDRITITCRTSQTVAGYLNWYQQTPGNAPKLLIYSASNLQSGVPSRFSGSGSGRDFSLTISSLQSEDSATYYCQHSYSTPYTFGQGTKVEIKR
notes: IgG
B5: humanized anti-GPC1 monoclonal antibody clone T32 (antibody, human IgG4 S228P, kappa, V domains shown)
VH: B1 VH
VL: DVVMTQSPGTLSLSPGERATLSCSASQSVSSNLAWYQQKPGQAPRLLIYGTSSRATGVPARFSGSGSGTEFTLTISSLQSEDFAAYYCQQYNSWPLTFGGGTKVEIKR
notes: IgG
B6: humanized anti-GPC1 monoclonal antibody clone T3 (antibody, human IgG4 S228P, kappa, V domains shown)
VH: B1 VH
VL: DIVMTQSPSSVSASVGDRVSITCRASEHINGWLAWYQQIPGKAPRILISSASILQSGAPSRFSGSGFGTDFTLTISSVQPEDFATYYCQQAKSYPLTFGGGTKVEIKR
notes: IgG
B7: humanized anti-GPC1 monoclonal antibody clone T8 (antibody, human IgG4 S228P, kappa, V domains shown)
VH: B1 VH
VL: EIVMTQSPSSVSASVGDRVTITCRTSQSISSYLNWYQLRPGRAPKLLIYAASNLQSGVPSRFSGSGFGTDFTLTISSVQPEDFATYYCQQAKSYPLTFGGGTKVDIKR
notes: IgG
B8: humanized anti-GPC1 monoclonal antibody clone T59 (antibody, human IgG4 S228P, kappa, V domains shown)
VH: B1 VH
VL: EIVMTQSPSSLSASVGDRVTITCQASQHISNKLNWYQQKPGKAPKLLIYDASNLETGVPSRFSGSGYGTDFTFTVSSLQPEDIATYYCQQYDNLPITFGQGTRLEIKR
notes: IgG
B9: humanized anti-GPC1 monoclonal antibody clone T7 (antibody, human IgG4 S228P, kappa, V domains shown)
VH: B1 VH
VL: AIQLTQSPSTLSASVGDRVTITCRASQSISSWLAWYQQKPGKAPKLLISDASNLASGVPLRFSGSGFGTHFTLTIDNLQPEDIATYSCQQYNNYPFTFGLGTKLEIKR
notes: IgG
B10: humanized anti-GPC1 monoclonal antibody clone T33 (antibody, human IgG4 S228P, kappa, V domains shown)
VH: B1 VH
VL: DVVMTQSPATLSVPPGDRATLSCRASQSVSSRLAWYQQKPGQAPKLLIYGASTRATGIPARFSGSWSGTEFTLTVSSLQSEDSAVYYCQQYNDWPRYTFGQGTKLEIKR
notes: IgG
B11: humanized anti-GPC1 monoclonal antibody clone T26 (antibody, human IgG4 S228P, kappa, V domains shown)
VH: B1 VH
VL: DVVMTQSPSSLSASVGERVTITCRASQSISSYLNWYQQKPGKAPKLLIYAASSRATGIPHRYSGSGSGTVFTLTISRLEPEDFATYYCQQFHSYPITFGQGTRLEIKR
B12: humanized anti-GPC1 monoclonal antibody clone T43 (antibody, human IgG4 S228P, kappa, V domains shown)
VH: B1 VH
VL: DIVMTQSPSSLSASVGDRVTITCRASQGIRSALAWYQQKPGKAPKLLIYDASNLQSGVPSRFSGSGSGTDFTLTISDVQAEDFGTYYCQQSFGPPRTFGQGTRLEIKR
notes: IgG
B13: humanized anti-GPC1 monoclonal antibody clone T28 (antibody, human IgG4 S228P, kappa, V domains shown)
VH: B1 VH
VL: DIQMTQSPSSLSASLGEMVTITCRASESIHSYLNWYQQKPGKAPNLLIYDASNLESGVPSRFSGSGYGTDFTLTISSLQPEDFATYYCQQSYGPPITFGQGTRLEIKR
notes: IgG
B14: humanized anti-GPC1 monoclonal antibody clone T31 (antibody, human IgG4 S228P, kappa, V domains shown)
VH: B1 VH
VL: AIQMTQSPATLSLSPGQRATLSCRASQSVSNYLAWYQQKPGQAPRLLIYDVSNRASGIPARFSGSGSGTDFTLTISSLEPEDFAIYYCQQRSNWPLTFGQGTKVDIKR
notes: IgG
B15: humanized anti-GPC1 monoclonal antibody clone T10 (antibody, human IgG4 S228P, kappa, V domains shown)
VH: B1 VH
VL: B6 VL with D1E, M4L, S10T, V11L, S20T, E27Q, H28S, N30S, G31S, V104L
notes: IgG
B16: humanized anti-GPC1 monoclonal antibody clone T34 (antibody, human IgG4 S228P, kappa, V domains shown)
VH: B1 VH
VL: B6 VL with D1V, V3W, S20T, E27Q, H28A, I39K, S49Y, I53T, S56T
notes: IgG

What follows are binders tested against T1, human GPC1 on the surface of … (assay: cell-based or functional assay).

Binder | IC50 of cytotoxicity on TE14 cells (ATP cell viability, 144 h) with MMAF-linked anti-human-IgG Fab as secondary antibody [nM]
B1 | 0.0399
B2 | 0.121
B3 | 2.18
B4 | 0.745
B5 | 0.888
B6 | 0.0526
B7 | 0.0379
B8 | 0.37
B9 | 0.0365
B10 | 1.86
B11 | 0.803
B12 | 0.37
B13 | 0.153
B14 | 0.688
B15 | 0.0488
B16 | 0.0501

These binders were tested against T2, recombinant human GPC1 protein (R&D …) (assay: SPR (Biacore 8K); antibody captured by anti-human IgG (Fc) on a CM5 chip, recombinant human GPC1 flowed over).
Protocol: The mouse anti-human-GPC1 monoclonal antibody was humanized (subclass: IgG4), and the obtained twenty clones (T1, T2, T3, T7, T8, T10, T11, T22, T26, T28, T29, T31, T32, T33, T34, T36, T43, T56, T57, T59) were prepared. An anti-human IgG (Fc) was immobilized on an sCM5 sensor chip (GE Healthcare) using Human antibody capture kit (GE Healthcare), and the affinity of each of these clones to a recombinant human GPC1 protein (R&D Systems) was measured using Biacore (registered trademark) 8K (GE Healthcare).

Binder | Kd [nM] | koff [s⁻¹] | kon [M⁻¹ s⁻¹]
B1 | 5.62 | 0.00134 | 238000
B2 | 272 | 0.0506 | 186000
B3 | 324 | 0.0664 | 205000
B4 | 218 | 0.0506 | 232000
B5 | 290 | 0.0603 | 208000
B6 | 3.11 | 0.000713 | 229000
B7 | 5.07 | 0.00118 | 234000
B8 | 302 | 0.0593 | 197000
B9 | 12 | 0.00411 | 343000
B10 | 462 | 0.0738 | 160000
B12 | 62.4 | 0.0106 | 169000
B13 | 21.7 | 0.00679 | 313000
B14 | 271 | 0.0539 | 198000
B15 | 7.55 | 0.0015 | 199000
B16 | 22.8 | 0.00393 | 172000
